Reference: patent US8450067B2, “Method for obtaining anti-idiotype antibodies” (Omrix Biopharmaceuticals Inc., priority 2002, dated 2013)
Each block holds one substance with its values, some of them ahead of it.

Experiments:
[1] = tested on: anti-dsDNA antibody-positive SLE sera; conditions: sera which cross react with ssDNA; cited from earlier work
[2] = target: synthetic cyclic peptide (1) KHETTET; assay: ELISA on coated Pep 1; control IgG 1 ug/ml
[3] = target: synthetic cyclic peptide (1) KHETTET; assay: ELISA on coated Pep 1; control IgG 5 ug/ml
[4] = target: synthetic cyclic peptide (2) PPNHSHL; assay: ELISA on coated Pep 2; control IgG 1 ug/ml
[5] = target: synthetic cyclic peptide (2) PPNHSHL; assay: ELISA on coated Pep 2; control IgG 5 ug/ml
[6] = target: synthetic cyclic peptide (3) AGLKNSQ; assay: ELISA on coated Pep 3; control IgG 1 ug/ml
[7] = target: synthetic cyclic peptide (3) AGLKNSQ; assay: ELISA on coated Pep 3; control IgG 5 ug/ml
[8] = target: synthetic cyclic peptide (4) ASTIRAG; assay: ELISA on coated Pep 4; control IgG 1 ug/ml
[9] = target: synthetic cyclic peptide (4) ASTIRAG; assay: ELISA on coated Pep 4; control IgG 5 ug/ml
[10] = target: synthetic cyclic peptide (5) VRVLLRS; assay: ELISA on coated Pep 5; control IgG 1 ug/ml
[11] = target: synthetic cyclic peptide (5) VRVLLRS; assay: ELISA on coated Pep 5; control IgG 5 ug/ml
[12] = target: synthetic cyclic peptide (6) TQPPELP; assay: ELISA on coated Pep 6; control IgG 1 ug/ml
[13] = target: synthetic cyclic peptide (6) TQPPELP; assay: ELISA on coated Pep 6; control IgG 5 ug/ml
[14] = target: synthetic cyclic peptide (7) LSQPERW; assay: ELISA on coated Pep 7; control IgG 1 ug/ml
[15] = target: synthetic cyclic peptide (7) LSQPERW; assay: ELISA on coated Pep 7; control IgG 5 ug/ml
[16] = target: synthetic cyclic peptide (8) PPPDLHA; assay: ELISA on coated Pep 8; control IgG 1 ug/ml
[17] = target: synthetic cyclic peptide (8) PPPDLHA; assay: ELISA on coated Pep 8; control IgG 5 ug/ml
[18] = target: synthetic cyclic peptide (9) GTTQWVL; assay: ELISA on coated Pep 9; control IgG 1 ug/ml
[19] = target: synthetic cyclic peptide (9) GTTQWVL; assay: ELISA on coated Pep 9; control IgG 5 ug/ml
[20] = target: synthetic cyclic peptide (10) YGTPSSE; assay: ELISA on coated Pep 10; control IgG 1 ug/ml
[21] = target: synthetic cyclic peptide (10) YGTPSSE; assay: ELISA on coated Pep 10; control IgG 5 ug/ml
[22] = target: synthetic cyclic peptide (11) SLQRHPW; assay: ELISA on coated Pep 11; control IgG 1 ug/ml
[23] = target: synthetic cyclic peptide (11) SLQRHPW; assay: ELISA on coated Pep 11; control IgG 5 ug/ml
[24] = target: synthetic cyclic peptide (12) PLPDWRV; assay: ELISA on coated Pep 12; control IgG 1 ug/ml
[25] = target: synthetic cyclic peptide (12) PLPDWRV; assay: ELISA on coated Pep 12; control IgG 5 ug/ml
[26] = target: synthetic cyclic peptide (13) DWLYSRS; assay: ELISA on coated Pep 13; control IgG 1 ug/ml
[27] = target: synthetic cyclic peptide (13) DWLYSRS; assay: ELISA on coated Pep 13; control IgG 5 ug/ml
[28] = target: synthetic cyclic peptide (14) PPQKHLL; assay: ELISA on coated Pep 14; control IgG 1 ug/ml
[29] = target: synthetic cyclic peptide (14) PPQKHLL; assay: ELISA on coated Pep 14; control IgG 5 ug/ml
[30] = target: synthetic cyclic peptide (15) KYKRKYP; assay: ELISA on coated Pep 15; control IgG 1 ug/ml
[31] = target: synthetic cyclic peptide (15) KYKRKYP; assay: ELISA on coated Pep 15; control IgG 5 ug/ml
[32] = target: synthetic cyclic peptide (1) KHETTET; assay: ELISA on coated Pep 1 (Table 3); control IgG 1 ug/ml
[33] = target: synthetic cyclic peptide (1) KHETTET; assay: ELISA on coated Pep 1 (Table 3); control IgG 5 ug/ml
[34] = target: literature peptide …; assay: ELISA on coated Pep 2 (Table 3); control IgG 1 ug/ml
[35] = target: literature peptide …; assay: ELISA on coated Pep 2 (Table 3); control IgG 5 ug/ml
[36] = target: literature peptide …; assay: ELISA on coated Pep 3 (Table 3); control IgG 1 ug/ml
[37] = target: literature peptide …; assay: ELISA on coated Pep 3 (Table 3); control IgG 5 ug/ml
[38] = target: literature peptide …; assay: ELISA on coated Pep 4 (Table 3); control IgG 1 ug/ml
[39] = target: literature peptide …; assay: ELISA on coated Pep 4 (Table 3); control IgG 5 ug/ml
[40] = target: literature peptide …; assay: ELISA on coated Pep 5 (Table 3); control IgG 1 ug/ml
[41] = target: literature peptide …; assay: ELISA on coated Pep 5 (Table 3); control IgG 5 ug/ml
[42] = target: literature peptide …; assay: ELISA on coated Pep 6 (Table 3); control IgG 1 ug/ml
[43] = target: literature peptide …; assay: ELISA on coated Pep 6 (Table 3); control IgG 5 ug/ml
[44] = target: literature peptide …; assay: ELISA on coated Pep 7 (Table 3); control IgG 1 ug/ml
[45] = target: literature peptide …; assay: ELISA on coated Pep 7 (Table 3); control IgG 5 ug/ml
[46] = target: literature peptide …; assay: ELISA on coated Pep 8 (Table 3); control IgG 1 ug/ml
[47] = target: literature peptide …; assay: ELISA on coated Pep 8 (Table 3); control IgG 5 ug/ml
[48] = target: literature peptide …; assay: ELISA on coated Pep 9 (Table 3); control IgG 1 ug/ml
[49] = target: literature peptide …; assay: ELISA on coated Pep 9 (Table 3); control IgG 5 ug/ml
[50] = target: literature peptide …; assay: ELISA on coated Pep 10 (Table 3); control IgG 1 ug/ml
[51] = target: literature peptide …; assay: ELISA on coated Pep 10 (Table 3); control IgG 5 ug/ml
[52] = target: literature peptide …; assay: ELISA on coated Pep 11 (Table 3); control IgG 1 ug/ml
[53] = target: literature peptide …; assay: ELISA on coated Pep 11 (Table 3); control IgG 5 ug/ml
[54] = tested on: immunoglobulin eluted from a peptide column bearing the peptide 706; assay: ELISA of peptide column eluate with biotinylated peptides (706 column); type: binding, human; conditions: FIG. 3; biotinylated peptide 1 μg/ml
Method: (§1) To measure the binding efficacy of peptide column eluates (706 and 707) the following ELISA was performed:
(§2) Microtiter plates (Costar, USA) were coated overnight at 2-8° C. with 10 μg/ml NeutrAvidin (Pierce, USA) suspended in 0.1M, pH 8.8, of carbonate-bicarbonate buffer (Sigma USA). The coating solution was removed, washed three times with washing buffer (1×PBS) and 200 μl of blocking solution (freshly prepared 1% I Block, Tropix, USA) per well was added and incubated for 1 hour at 37° C. Coated and blocked plates can be stored at −20° C. for a month before use.
(§3) Tested samples diluted in the blocking solution were mixed in a separate tube with 1 μg/ml (final concentration) of the appropriate biotinylated peptide and the mixture was incubated for 1 hour at 37° C. 100 μl from each reaction tube was then transferred to the blocked microtiter plate and incubated at 37° C. for ½ hour. A 100 μl of 1:5000 Alkaline Phosphatase conjugate goat anti human IgG (Heavy and light chain from Jackson, USA) diluted in the blocking buffer was applied into the microtiter well and incubated for 1 hour. […] The measurement was done photometrically at 405 nm.

[55] = tested on: immunoglobulin elution peak from a peptide column bound with peptide 707; assay: ELISA of peptide column eluate with biotinylated peptides (707 column); type: binding, human; conditions: FIG. 4; biotinylated peptide 1 μg/ml
Method: as §1, §2, §3

mice = conditions: cited from earlier work
BALB/c neonatal mice = BALB/c neonatal mice immunized later with pCDR1 or the pathogenic auto-Ab; cited from earlier work

Substance: RLTSSLRYNP [synthetic peptide mimotope of dsDNA (Sun et al. 2001)]
- share of anti-dsDNA antibody-positive SLE sera that recognize the peptide [1]: 88%

- OD at 405 nm [2]: 0.013 OD
- OD at 405 nm [3]: 0.016 OD
- OD at 405 nm [4]: 0.009 OD
- OD at 405 nm [5]: 0.009 OD
- OD at 405 nm [6]: 0.011 OD
- OD at 405 nm [7]: 0.011 OD
- OD at 405 nm [8]: 0.013 OD
- OD at 405 nm [9]: 0.011 OD
- OD at 405 nm [10]: 0.009 OD
- OD at 405 nm [11]: 0.008 OD
- OD at 405 nm [12]: 0.007 OD
- OD at 405 nm [13]: 0.009 OD
- OD at 405 nm [14]: 0.045 OD
- OD at 405 nm [15]: 0.048 OD
- OD at 405 nm [16]: 0.043 OD
- OD at 405 nm [17]: 0.046 OD
- OD at 405 nm [18]: 0.045 OD
- OD at 405 nm [19]: 0.044 OD
- OD at 405 nm [20]: 0.06 OD
- OD at 405 nm [21]: 0.048 OD
- OD at 405 nm [22]: 0.068 OD
- OD at 405 nm [23]: 0.068 OD
- OD at 405 nm [24]: 0.043 OD
- OD at 405 nm [25]: 0.045 OD
- OD at 405 nm [26]: 0.069 OD
- OD at 405 nm [27]: 0.078 OD
- OD at 405 nm [28]: 0.079 OD
- OD at 405 nm [29]: 0.083 OD
- OD at 405 nm [30]: 0.037 OD
- OD at 405 nm [31]: 0.068 OD
- OD at 405 nm [32]: 0.044 OD
- OD at 405 nm [33]: 0.043 OD
- OD at 405 nm [34]: 0.04 OD
- OD at 405 nm [35]: 0.041 OD
- OD at 405 nm [36]: 0.043 OD
- OD at 405 nm [37]: 0.043 OD
- OD at 405 nm [38]: 0.04 OD
- OD at 405 nm [39]: 0.039 OD
- OD at 405 nm [40]: 0.043 OD
- OD at 405 nm [41]: 0.048 OD
- OD at 405 nm [42]: 0.046 OD
- OD at 405 nm [43]: 0.043 OD
- OD at 405 nm [44]: 0.043 OD
- OD at 405 nm [45]: 0.052 OD
- OD at 405 nm [46]: 0.044 OD
- OD at 405 nm [47]: 0.041 OD
- OD at 405 nm [48]: 0.044 OD
- OD at 405 nm [49]: 0.045 OD
- OD at 405 nm [50]: 0.042 OD
- OD at 405 nm [51]: 0.041 OD
- OD at 405 nm [52]: 0.043 OD
- OD at 405 nm [53]: 0.041 OD
Substance: IgG purified from one donor (negative control) (antibody)

- binding of 706 column eluate to biotinylated peptide [54]: reacted specifically in a linear fashion
- binding of 707 column eluate to biotinylated peptide [55]: reacted
Substance: TGYYMQWVKQSPEKSLEWIG [Pep 706]
- effect on disease in experimental SLE mice (mice; experimental SLE mice): ameliorate the disease
- induction of SLE-like disease in mice (mice; responder mice (BALB/c, SJL)): induced a mild SLE-like disease
- auto-Ab production (BALB/c neonatal mice): prevent auto-Ab production
